# Results taken from paper PMC7269035.
# Target: LARP1 DM15 F844Y/R847E (FYRE) (Homo sapiens, UniProt Q6PKG0-3 796-946, F844Y;R847E)
# Assay: EMSA
binder,measurement,value
"GCUCUUUUCCGUGGCGCCUC (ssRNA, 5' m7Gppp cap (vaccinia capping enzyme)) [m7Gppp-non-TOP (+1G) RPS6 20-mer]",binding result,binds
